The values below come from article PMC3463532.

Assay [1] deals with Dictyostelium discoideum p97^R155C, purified recombinant (D. discoideum) (UniProt P90532). The assay is described as follows: native gel or EMSA; blue native PAGE (BN-PAGE) of the affinity purified recombinant protein, Coomassie staining; SDS-PAGE beside it; monomers to hexamer. (In EMSA bound probe runs differently from free probe, usually more slowly.)
In assay [2] the target is Dictyostelium discoideum p97, purified recombinant wild-type (D. discoideum) (UniProt P90532). The assay is described as above.

With “Dictyostelium discoideum p97^R155C, purified recombinant (from UniProt P90532 1-793) (natural protein)”, in assay [1], the stoichiometry N (in general, the number of molecules, sites or subunits per partner or assembly) was found to be 6.

For “Dictyostelium discoideum p97, purified recombinant wild-type (from UniProt P90532 1-793) (natural protein)”, the stoichiometry N in assay [2] was determined as 6.
